Experiment in all cases: SPR, antibody on GLC chip, SIRP as analyte
The target in one experiment is T1, Human SIRPβ (human, UniProt O00241 30-148).
T1 construct: Soluble analyte in SPR
Here is the method: (§1) The running buffer was PBS pH 7.4 with 0.01% TWEEN-20 (PBST+). All analytes were used at their nominal concentrations as determined by A280 absorbance and using their molar calculated extinction coefficient. Analytes were injected in a “one-shot” kinetic mode as described (see, e.g., Bravman et al., Anal. Biochem. 2006, 358, 281-288).
(§2) For the method using a GLC chip, the analytes were injected and flowed over anti-SIRPα antibodies immobilized (˜1000 RUs) on GLC chips using Proteon Amine Coupling Kit. For the immobilization step, the GLC chip was activated with EDAC/Sulpho-NHS 1:1 (Biorad) diluted 1/100 for 300 s at 25 μL/min. Anti-SIRPα antibodies were diluted to 80 nM concentration in 10 mM sodium acetate buffer pH 4.5 and immobilized to the chip at 30 μL/min for 50 s. Chip was inactivated with ethanolamine for 300 s at 25 μL/min. The analytes (e.g., SIRP-α from different species, SIRP-β, SIRP-γ) were injected in a “one-shot” kinetic mode at nominal concentrations of 100, 33, 11, 3.7, 1.2, and 0 nM. Association times were monitored for 90 s at 100 uL/min, and dissociation times were monitored for 1200 s. The surfaces were regenerated with a 2:1 v/v blend of Pierce IgG elution buffer/4M NaCl.
(§3) Biosensor data were double-referenced by subtracting the interspot data (containing no immobilized protein) from the reaction spot data (immobilized protein) and then subtracting the response of a buffer “blank” analyte injection from that of an analyte injection. Double-referenced data were fit globally to a simple Langmuir model and the KD value was calculated from the ratio of the apparent kinetic rate constants (KD=kd/kₐ).

The target in the next experiment is T2, SIRP-α human v2 (human, UniProt P78324 31-149, limits assumed).
T2 construct: Soluble analyte in SPR
T2 sequence (P78324 other isoform, or with tags, fused parts or gaps limits assumed): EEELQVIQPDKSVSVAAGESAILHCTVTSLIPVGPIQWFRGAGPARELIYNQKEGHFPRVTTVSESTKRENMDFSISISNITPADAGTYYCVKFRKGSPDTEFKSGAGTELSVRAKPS
Here is the method: as §1, §2, §3

Another experiment addresses T3, SIRP-α mouse BL6 (mouse (BL6), UniProt P97797 32-150, limits assumed).
T3 construct: Soluble analyte in SPR
T3 sequence (looked up): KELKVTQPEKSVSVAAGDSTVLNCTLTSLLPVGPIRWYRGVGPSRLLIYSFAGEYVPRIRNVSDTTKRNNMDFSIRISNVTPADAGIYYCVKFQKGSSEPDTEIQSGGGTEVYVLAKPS
As for the experimental part: as §1, §2, §3

For a further experiment, the target named is T4, Human SIRPγ (human, UniProt Q9P1W8 29-147, limits assumed).
T4 construct: Soluble analyte in SPR
T4 sequence (Q9P1W8 29-147 limits assumed): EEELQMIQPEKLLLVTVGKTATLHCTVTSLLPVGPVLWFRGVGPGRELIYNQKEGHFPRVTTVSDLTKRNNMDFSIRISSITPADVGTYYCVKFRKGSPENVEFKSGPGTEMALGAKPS
As for the experimental part: as §1, §2, §3

Another experiment deals with T5, SIRP-α cynomolgus (cynomolgus, UniProt A0A2K5VYQ9 31-148).
T5 construct: Soluble analyte in SPR; also called cynomologous monkey SIRP-α
T5 sequence: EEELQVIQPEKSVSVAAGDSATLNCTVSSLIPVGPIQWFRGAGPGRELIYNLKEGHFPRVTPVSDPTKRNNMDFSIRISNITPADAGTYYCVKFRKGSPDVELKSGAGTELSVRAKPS
Here is the method:
as §1, §2, §3

T1 sequence (O00241 30-148): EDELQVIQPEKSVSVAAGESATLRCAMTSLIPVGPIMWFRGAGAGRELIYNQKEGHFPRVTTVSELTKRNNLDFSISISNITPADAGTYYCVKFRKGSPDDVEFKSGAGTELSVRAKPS

B1: Anti-SIRP-α antibody 136, light chain wt, heavy chain Mut (antibody, V domains shown)
VH: EVQLVESGGGVVQPGRSLRLSCAASGFTFSSYDVNWVRQAPGKGLEWVSLISGSGEIIYYADSVKGRFTISRDNSKNTLYLQMNSLRAEDTAVYYCAKENNRYRFFDDWGQGTLVTVSS
VL: ETVLTQSPGTLTLSPGERATLTCRASQSVYTYLAWYQEKPGQAPRLLIYGASSRATGIPDRFSGSGSGTEFTLTISSLQSEDFAVYYCQQYYDRPPLTFGGGTKVEIK
notes: Whole antibody; Heavy chain mut = D1E, R13Q, E16R, M34V, E43K, L111Q
With B1, the Kd in the experiment with Human SIRPβ was 3.5 nM; with SIRP-α human v2, 1.7 nM; with SIRP-α mouse BL6, 23 nM; in the experiment with Human SIRPγ it was 17 nM.

B2: Anti-SIRP-α antibody 136, light chain wt, heavy chain wt (antibody, V domains shown)
VH: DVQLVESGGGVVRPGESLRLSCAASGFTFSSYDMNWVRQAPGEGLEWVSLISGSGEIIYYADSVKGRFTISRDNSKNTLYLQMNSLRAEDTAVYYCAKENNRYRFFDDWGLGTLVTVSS
VL: ETVLTQSPGTLTLSPGERATLTCRASQSVYTYLAWYQEKPGQAPRLLIYGASSRATGIPDRFSGSGSGTEFTLTISSLQSEDFAVYYCQQYYDRPPLTFGGGTKVEIK
notes: Whole antibody
Regarding B2, the Kd with Human SIRPβ came out at 4.4 nM; in the experiment with SIRP-α human v2, 1.6 nM; with SIRP-α mouse BL6, 13 nM; with Human SIRPγ, 24 nM.

B3: Anti-SIRP-α antibody 136, light chain Mut, heavy chain wt (antibody, V domains shown)
VH: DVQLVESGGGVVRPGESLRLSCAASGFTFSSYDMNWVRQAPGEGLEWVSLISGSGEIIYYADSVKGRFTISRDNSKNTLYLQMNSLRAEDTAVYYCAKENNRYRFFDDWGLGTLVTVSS
VL: EIVLTQSPGTLSLSPGERATLSCRASQSVYTYLAWYQQKPGQAPRLLIYGASSRATGIPDRFSGSGSGTEFTLTISSLQSEDFAVYYCQQYYDRPPLTFGGGTKVEIK
notes: Whole antibody; Light chain mut = T2I, T12S, T22S, E38Q
B3: the Kd in the experiment with SIRP-α human v2 was 17 nM; in the experiment with SIRP-α mouse BL6, 33 nM; with Human SIRPγ, 20 nM.

B4: Anti-SIRP-α antibody 136, light chain Mut_S22T, heavy chain Mut (antibody, V domains shown)
VH: EVQLVESGGGVVQPGRSLRLSCAASGFTFSSYDVNWVRQAPGKGLEWVSLISGSGEIIYYADSVKGRFTISRDNSKNTLYLQMNSLRAEDTAVYYCAKENNRYRFFDDWGQGTLVTVSS
VL: EIVLTQSPGTLSLSPGERATLTCRASQSVYTYLAWYQQKPGQAPRLLIYGASSRATGIPDRFSGSGSGTEFTLTISSLQSEDFAVYYCQQYYDRPPLTFGGGTKVEIK
notes: Whole antibody
In the case of B4, the values for the dissociation constant Kd in the experiment with SIRP-α human v2, in the experiment with SIRP-α mouse BL6 and in the experiment with Human SIRPγ were 8.3 nM, 13 nM and 62 nM, respectively.

B5: Anti-SIRP-α antibody 136, light chain Mut_S12T, heavy chain Mut (antibody, V domains shown)
VH: EVQLVESGGGVVQPGRSLRLSCAASGFTFSSYDVNWVRQAPGKGLEWVSLISGSGEIIYYADSVKGRFTISRDNSKNTLYLQMNSLRAEDTAVYYCAKENNRYRFFDDWGQGTLVTVSS
VL: EIVLTQSPGTLTLSPGERATLSCRASQSVYTYLAWYQQKPGQAPRLLIYGASSRATGIPDRFSGSGSGTEFTLTISSLQSEDFAVYYCQQYYDRPPLTFGGGTKVEIK
notes: Whole antibody
As to B5, the dissociation constant Kd with SIRP-α human v2 is 11 nM; in the experiment with SIRP-α mouse BL6 it was 16 nM; in the experiment with Human SIRPγ, 67 nM.

B6: Anti-SIRP-α antibody 136, light chain Mut, heavy chain Mut (antibody, V domains shown)
VH: EVQLVESGGGVVQPGRSLRLSCAASGFTFSSYDVNWVRQAPGKGLEWVSLISGSGEIIYYADSVKGRFTISRDNSKNTLYLQMNSLRAEDTAVYYCAKENNRYRFFDDWGQGTLVTVSS
VL: EIVLTQSPGTLSLSPGERATLSCRASQSVYTYLAWYQQKPGQAPRLLIYGASSRATGIPDRFSGSGSGTEFTLTISSLQSEDFAVYYCQQYYDRPPLTFGGGTKVEIK
notes: Whole antibody
Turning to B6, the Kd was determined as 20 nM with SIRP-α human v2, 32 nM with SIRP-α mouse BL6 and 1.7 nM with Human SIRPγ.

B7: Anti-SIRP-α antibody 136, light chain Mut_Q38E, heavy chain Mut (antibody, V domains shown)
VH: EVQLVESGGGVVQPGRSLRLSCAASGFTFSSYDVNWVRQAPGKGLEWVSLISGSGEIIYYADSVKGRFTISRDNSKNTLYLQMNSLRAEDTAVYYCAKENNRYRFFDDWGQGTLVTVSS
VL: EIVLTQSPGTLSLSPGERATLSCRASQSVYTYLAWYQEKPGQAPRLLIYGASSRATGIPDRFSGSGSGTEFTLTISSLQSEDFAVYYCQQYYDRPPLTFGGGTKVEIK
notes: Whole antibody
B7: the Kd in the experiment with SIRP-α human v2 came to 13 nM; with SIRP-α mouse BL6, 33 nM; with Human SIRPγ, 19 nM.

B8: Anti-SIRP-α antibody 136, light chain Mut_I2T, heavy chain Mut (antibody, V domains shown)
VH: EVQLVESGGGVVQPGRSLRLSCAASGFTFSSYDVNWVRQAPGKGLEWVSLISGSGEIIYYADSVKGRFTISRDNSKNTLYLQMNSLRAEDTAVYYCAKENNRYRFFDDWGQGTLVTVSS
VL: ETVLTQSPGTLSLSPGERATLSCRASQSVYTYLAWYQQKPGQAPRLLIYGASSRATGIPDRFSGSGSGTEFTLTISSLQSEDFAVYYCQQYYDRPPLTFGGGTKVEIK
notes: Whole antibody
For B8, the Kd with Human SIRPβ stood at 3.2 nM; in the experiment with SIRP-α human v2, 1.8 nM; with SIRP-α mouse BL6 it was 15 nM; in the experiment with Human SIRPγ, 40 nM.

B9: Anti-SIRP-α antibody 119, light chain Mut, heavy chain wt (antibody, V domains shown)
VH: EVQLLESGGGVVQPGGSLRLSCAASGFSFSNFAMTWVRQAPGEGLEWVSTIGSGDTYYADSVKGRFTISRDNSKNTLYLQMNSLRAEDTAVYYCAKDSTVSWSGDFFDYWGLGTLVTVSS
VL: EIVLTQSPATLSVSPGERATLSCRASQNVKNDLAWYQQKPGQAPRLLIYAARIRETGIPARFSGSGSGTEFTLTISSLQSEDFAVYYCQQYYDWPPFTFGGGTKVEIK
notes: Whole antibody; Light chain mut = F21L, R39K, E60A, T76S
Turning to B9, the Kd was 0.086 nM with SIRP-α human v2, 0.14 nM with SIRP-α cynomolgus and 0.23 nM with Human SIRPγ. In addition, the binding result with SIRP-α mouse BL6 was “no binding (tested: 100 nM (highest analyte concentration))”.

B10: Anti-SIRP-α antibody 119, light chain wt, heavy chain Mut (antibody, V domains shown)
VH: EVQLLESGGGVVQPGGSLRLSCAASGFSFSNFAVTWVRQAPGKGLEWVSTIGSGDTYYADSVKGRFTISRDNSKNTLYLQMNSLRAEDTAVYYCAKDSTVSWSGDFFDYWGQGTLVTVSS
VL: EIVLTQSPATLSVSPGERATFSCRASQNVKNDLAWYQQRPGQAPRLLIYAARIRETGIPERFSGSGSGTEFTLTITSLQSEDFAVYYCQQYYDWPPFTFGGGTKVEIK
notes: Whole antibody; Heavy chain mut = D1E, E43K, L112Q, M34V
Take B10: the Kd with SIRP-α human v2 stood at 0.069 nM; with SIRP-α cynomolgus it was 0.16 nM. Besides, the binding result in the experiment with SIRP-α mouse BL6 is “no binding (tested: 100 nM (highest analyte concentration))”.

B11: Anti-SIRP-α antibody 135, light chain Mut, heavy chain wt (antibody, V domains shown)
VH: DVQLVESGGGVVRPGESLRLSCAASGFSFSIYAMSWVRQAPGEGLEWVSTIGADDTYYADSVKGRFTISRDNSKNTLYLQMNSLRAEDTAVYYCAKDSTVGWSGDFFDYWGLGTLVTVSS
VL: EIVLTQSPATLSVSPGERVTLSCRASQNVRSDIAWYQQKPGQAPRLLIYAASSRDTGIPARFSGSGSGTDFTLTISSLQSEDFGVYYCQQYYDWPPFTFGGGTKVEIK
notes: Whole antibody; Light chain mut = F21L, D60A
B11: the Kd worked out at 0.027 nM with SIRP-α human v2, 0.1 nM with SIRP-α cynomolgus and 0.52 nM in the experiment with Human SIRPγ. Besides, the binding result with SIRP-α mouse BL6 is recorded as “no binding (tested: 100 nM (highest analyte concentration))”.

B12: Anti-SIRP-α antibody 135, light chain wt, heavy chain wt (antibody, V domains shown)
VH: DVQLVESGGGVVRPGESLRLSCAASGFSFSIYAMSWVRQAPGEGLEWVSTIGADDTYYADSVKGRFTISRDNSKNTLYLQMNSLRAEDTAVYYCAKDSTVGWSGDFFDYWGLGTLVTVSS
VL: EIVLTQSPATLSVSPGERVTFSCRASQNVRSDIAWYQQKPGQAPRLLIYAASSRDTGIPDRFSGSGSGTDFTLTISSLQSEDFGVYYCQQYYDWPPFTFGGGTKVEIK
notes: Whole antibody
With B12, the Kd with SIRP-α human v2 came out at 0.029 nM; with SIRP-α cynomolgus, 0.097 nM; in the experiment with Human SIRPγ, 0.54 nM. The binding result with SIRP-α mouse BL6 is on record as “no binding (tested: 100 nM (highest analyte concentration))”.

B13: Anti-SIRP-α antibody 135, light chain wt, heavy chain Mut (antibody, V domains shown)
VH: EVQLVESGGGVVQPGGSLRLSCAASGFSFSIYAVSWVRQAPGKGLEWVSTIGADDTYYADSVKGRFTISRDNSKNTLYLQMNSLRAEDTAVYYCAKDSTVGWSGDFFDYWGQGTLVTVSS
VL: EIVLTQSPATLSVSPGERVTFSCRASQNVRSDIAWYQQKPGQAPRLLIYAASSRDTGIPDRFSGSGSGTDFTLTISSLQSEDFGVYYCQQYYDWPPFTFGGGTKVEIK
notes: Whole antibody; Heavy chain mut = D1E, R13Q, E16G, M34V, E43K, L112Q
For the molecule B13, the figures for the equilibrium dissociation constant (Kd) with SIRP-α human v2, with SIRP-α cynomolgus and in the experiment with Human SIRPγ were 0.02 nM, 0.13 nM and 0.78 nM, respectively. In addition, the binding result in the experiment with SIRP-α mouse BL6 was “no binding (tested: 100 nM (highest analyte concentration))”.

Source of the values: patent US20220096649A1 (TALLAC THERAPEUTICS, published 2022).
